Source: publication PMC6643046
pKd: −log10 of the molar value. Blank lines part the entries; values can stand above or below the substance they belong to.

Key:
[1] = target: His-eYFP-PRDM9^Cst ZnF (Mus musculus castaneus (CAST/EiJ strain)); assay: native gel or EMSA; multimer assay I: construct bound to single-Hlx1 and tandem-Hlx1 DNA fragments of rising length, native 5% polyacrylamide gel; MW of the second complex (supershift) read from the regression of the lower shifts and divided by the monomer's MW; crude bacterial lysates or in vitro expressed protein
[2] = target: His-PRDM9^Cst ZnF1-11 (Mus musculus castaneus (CAST/EiJ strain)); assay: as above
[3] = target: His-PRDM9^Cst ZnF2–6 (Mus musculus castaneus (CAST/EiJ strain)); assay: native gel or EMSA; multimer assay II: construct bound to a 75-bp DNA (Hlx1 for PRDM9^Cst, Pbx1 for PRDM9^Dom2), native gel; MW of the lower shift read against a ladder of free DNA (75-740 bp) and divided by the monomer's MW; four replicates; crude bacterial lysates or in vitro expressed protein
[4] = target: His-PRDM9^Cst ZnF2–6 (Mus musculus castaneus (CAST/EiJ strain)); assay: native gel or EMSA; multimer assay I: construct bound to single-Hlx1 and tandem-Hlx1 DNA fragments of rising length, native 5% polyacrylamide gel; MW of the second complex (supershift) read from the regression of the lower shifts and divided by the monomer's MW; crude bacterial lysates or in vitro expressed protein
[5] = target: His-PRDM9^Cst ZnF (Mus musculus castaneus (CAST/EiJ strain)); assay: as above
[6] = target: His-eYFP-PRDM9^Cst ZnF1-11 (Mus musculus castaneus (CAST/EiJ strain)); assay: native gel or EMSA; multimer assay II: construct bound to a 75-bp DNA (Hlx1 for PRDM9^Cst, Pbx1 for PRDM9^Dom2), native gel; MW of the lower shift read against a ladder of free DNA (75-740 bp) and divided by the monomer's MW; four replicates; crude bacterial lysates or in vitro expressed protein
[7] = target: His-eYFP-PRDM9^Cst ZnF1-11 (Mus musculus castaneus (CAST/EiJ strain)); assay: native gel or EMSA; multimer assay I: construct bound to single-Hlx1 and tandem-Hlx1 DNA fragments of rising length, native 5% polyacrylamide gel; MW of the second complex (supershift) read from the regression of the lower shifts and divided by the monomer's MW; crude bacterial lysates or in vitro expressed protein
[8] = target: His-MBP-eYFP-PRDM9^Dom2 ZnF (Mus musculus domesticus (C57BL/6J strain)); assay: native gel or EMSA; multimer assay II: construct bound to a 75-bp DNA (Hlx1 for PRDM9^Cst, Pbx1 for PRDM9^Dom2), native gel; MW of the lower shift read against a ladder of free DNA (75-740 bp) and divided by the monomer's MW; four replicates; crude bacterial lysates or in vitro expressed protein
[9] = target: His-eYFP-PRDM9^Cst ZnF2-11 (Mus musculus castaneus (CAST/EiJ strain)); assay: as above
[10] = target: His-eYFP-PRDM9^Cst ZnF2-11 (Mus musculus castaneus (CAST/EiJ strain)); assay: native gel or EMSA; multimer assay I: construct bound to single-Hlx1 and tandem-Hlx1 DNA fragments of rising length, native 5% polyacrylamide gel; MW of the second complex (supershift) read from the regression of the lower shifts and divided by the monomer's MW; crude bacterial lysates or in vitro expressed protein
[11] = target: His-eYFP-PRDM9^Cst (full-length PRDM9^Cst with KRAB, SSXRD, PR/SET and ZnF domains) (Mus musculus castaneus (CAST/EiJ strain)); assay: native gel or EMSA; multimer assay II: construct bound to a 75-bp DNA (Hlx1 for PRDM9^Cst, Pbx1 for PRDM9^Dom2), native gel; MW of the lower shift read against a ladder of free DNA (75-740 bp) and divided by the monomer's MW; four replicates; crude bacterial lysates or in vitro expressed protein
[12] = target: His-Halo-PRDM9^Cst ZnF1-11 (Mus musculus castaneus (CAST/EiJ strain)); assay: native gel or EMSA; multimer assay II as a2, with the semipure (ion-exchange) Halo-tagged construct; the shifted band was shown by MALDI-TOF mass spectrometry to hold mainly PRDM9 peptides
[13] = target: His-MBP-eYFP-PRDM9^Cst ZnF (Mus musculus castaneus (CAST/EiJ strain)); assay: native gel or EMSA; multimer assay II: construct bound to a 75-bp DNA (Hlx1 for PRDM9^Cst, Pbx1 for PRDM9^Dom2), native gel; MW of the lower shift read against a ladder of free DNA (75-740 bp) and divided by the monomer's MW; four replicates; crude bacterial lysates or in vitro expressed protein
[14] = target: MBP-ZnF-Cst (Mus musculus castaneus (CAST/EiJ)) (UniProt Q96EQ9); assay: EMSA; conditions: 10 mM Tris pH 7.5, 50 mM KCl, 50 uM ZnCl2, 0.05% NP-40 (1x TKZN), usually 50 ng/ul polydIdC, 60 min at RT, 5% native PAGE in 0.5x TBE
[15] = target: His-PRDM9^Cst ZnF2-8 (Mus musculus castaneus (CAST/EiJ strain)); assay: native gel or EMSA; multimer assay II: construct bound to a 75-bp DNA (Hlx1 for PRDM9^Cst, Pbx1 for PRDM9^Dom2), native gel; MW of the lower shift read against a ladder of free DNA (75-740 bp) and divided by the monomer's MW; four replicates; crude bacterial lysates or in vitro expressed protein
[16] = target: His-PRDM9^Cst ZnF2-8 (Mus musculus castaneus (CAST/EiJ strain)); assay: native gel or EMSA; multimer assay I: construct bound to single-Hlx1 and tandem-Hlx1 DNA fragments of rising length, native 5% polyacrylamide gel; MW of the second complex (supershift) read from the regression of the lower shifts and divided by the monomer's MW; crude bacterial lysates or in vitro expressed protein

Substance: His-PRDM9^Cst ZnF1-11 (domain or fragment)
stoichiometry N [2]: 3

Substance: His-eYFP-PRDM9^Cst ZnF1-11 (domain or fragment)
stoichiometry N [6]: 3.5
stoichiometry N [7]: 3.8

Substance: His-eYFP-PRDM9^Cst (full-length PRDM9^Cst with KRAB, SSXRD, PR/SET and ZnF domains) (natural protein)
stoichiometry N [11]: 3

Substance: His-Halo-PRDM9^Cst ZnF1-11 (domain or fragment)
stoichiometry N [12]: 3

Substance: AACCCTGAGCTGCCTAAAGGTCAAATAGTGTGCAGACTTGGACCCTGCCCTTTCTTTAATAGTGTGCAGACTTGGACCCTGCCCTTTCTTTCTGCTGTGAATACCAGAGGCACA (double strand) [tandem-Hlx1 114 bp]
pKd ([14]; sum of lower shift and supershift, two complexes): 7.46

Substance: His-PRDM9^Cst ZnF2-8 (domain or fragment)
stoichiometry N [15]: 2.5
stoichiometry N [16]: 2.7

Substance: GTGGGAGGAGATGGTGGGTGAATAGTGTGCAGACTTGGACCCTGCCCTTTCTTTACGCATTCCACTAACCATGGG (double strand) [single-Hlx1 75 bp]
pKd ([14]; 60 min incubation): 7.32

More lines, now with the values ahead:

stoichiometry N [1]: 3
Substance: His-eYFP-PRDM9^Cst ZnF (domain or fragment)

stoichiometry N [3]: 2.9
stoichiometry N [4]: 2.9
Substance: His-PRDM9^Cst ZnF2–6 (domain or fragment)

stoichiometry N [5]: 3
Substance: His-PRDM9^Cst ZnF (domain or fragment)

stoichiometry N [8]: 3
Substance: His-MBP-eYFP-PRDM9^Dom2 ZnF (domain or fragment)

stoichiometry N [9]: 3
stoichiometry N [10]: 2.7
Substance: His-eYFP-PRDM9^Cst ZnF2-11 (domain or fragment)

stoichiometry N [13]: 3
Substance: His-MBP-eYFP-PRDM9^Cst ZnF (domain or fragment)
